We go through three molecules from publication PMC9787417 (Pathogens, 2022).

The target of one series is 14-3-3β (Homo sapiens) (UniProt P31946). The settings on record: cited from earlier work.
The series “mass photometry” concerns the molecule itself. As to the kind of experiment: mass photometry.

Chain of 14-3-3β (Homo sapiens) (P31946 2-246): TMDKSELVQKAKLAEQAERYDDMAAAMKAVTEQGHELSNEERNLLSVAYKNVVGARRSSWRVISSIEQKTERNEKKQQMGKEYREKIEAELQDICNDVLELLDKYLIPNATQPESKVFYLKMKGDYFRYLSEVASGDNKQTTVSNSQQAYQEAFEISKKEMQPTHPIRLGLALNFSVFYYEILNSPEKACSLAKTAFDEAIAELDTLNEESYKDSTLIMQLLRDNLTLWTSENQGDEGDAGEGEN

As a reminder, the Kd is the concentration at which binding is half-saturated. Regarding ExoS ART domain (from UniProt G3XDA1), the Kd with 14-3-3β (Homo sapiens) is 40 nM.

B1: human 14-3-3β, individually expressed, with affinity tag (natural protein)
chain: MTMDKSELVQKAKLAEQAERYDDMAAAMKAVTEQGHELSNEERNLLSVAYKNVVGARRSSWRVISSIEQKTERNEKKQQMGKEYREKIEAELQDICNDVLELLDKYLIPNATQPESKVFYLKMKGDYFRYLSEVASGDNKQTTVSNSQQAYQEAFEISKKEMQPTHPIRLGLALNFSVFYYEILNSPEKACSLAKTAFDEAIAELDTLNEESYKDSTLIMQLLRDNLTLWTSENQGDEG
notes: also called purified 14-3-3β
The term stoichiometry N denotes a count of units in the complex or per binding partner. Consider B1, for which the “stoichiometry N” value in the series “mass photometry” worked out at 2.

B2: human 14-3-3β, un-tagged, co-expressed with the exotoxin ART domains (natural protein)
chain: MTMDKSELVQKAKLAEQAERYDDMAAAMKAVTEQGHELSNEERNLLSVAYKNVVGARRSSWRVISSIEQKTERNEKKQQMGKEYREKIEAELQDICNDVLELLDKYLIPNATQPESKVFYLKMKGDYFRYLSEVASGDNKQTTVSNSQQAYQEAFEISKKEMQPTHPIRLGLALNFSVFYYEILNSPEKACSLAKTAFDEAIAELDTLNEESYKDSTLIMQLLRDNLTLWTSENQGDEG
Consider B2, for which the “stoichiometry N” value in “mass photometry” amounted to 2.
